Values of other authors, collected in paper PMC7553146.

Tests used:
[1] = molecular target: Cys145 (UniProt position 3385, FLNGSCGSVGF)
[2] = molecular target: His41 (UniProt position 3281, VYCPRHVICTA)

3C-like main protease (3CL Mpro, nsp5) (Severe acute respiratory syndrome coronavirus (SARS-CoV))
pKa [1]: 8.0 ± 0.3
pKa [2]: 6.3 ± 0.1
